Positions of bridges follow the written chain, without caps; N, C: chain ends. Non-standard residues stand in square brackets, D forms with d. Primed or numbered codes have the meaning given here. *: point of attachment. mXylyl(3) = bridging moiety between the two residues given in brackets; mXylyl″ = bridging moiety between the two marked residues; mXylyl = bridging moiety between residues (mXylyl(i,j)); Ala(1H-tetrazol-5-yl) = N[C@@H](Cc1nnn[nH]1)C(=O)O; Trp(7-aza) = N[C@@H](Cc1c[nH]c2ncccc12)C(=O)O; mXylyl(4) = bridging moiety between residues; Trp(1-Me) = Cn1cc(C[C@H](N)C(=O)O)c2ccccc21; pXylyl = bridging moiety between residues; Phe(3-Cl) = N[C@@H](Cc1cccc(Cl)c1)C(=O)O; Tiq1c(1S) = O=C(O)[C@H]1NCCc2ccccc21; dPhg = N[C@@H](C(=O)O)c1ccccc1; Phg = N[C@H](C(=O)O)c1ccccc1; Tle = CC(C)(C)[C@H](N)C(=O)O; NMeS = CN[C@@H](CO)C(=O)O; hCys = N[C@@H](CCS)C(=O)O; Heptanoyl = CCCCCCC(=O)*; Nle = CCCC[C@H](N)C(=O)O; Nva = CCC[C@H](N)C(=O)O; Sar = CNCC(=O)O
B1: R3010 (peptide)
peptide: Ac-[Nva]CYE[Sar][Tle]Y[Trp(7-aza)]E[Nva][Nva]PC-NH2
modifications: linker 2-13 via mXylyl
B2: R3104 (peptide)
peptide: Ac-[Nva][hCys][Phg]T[Trp(7-aza)]EY[NMeS]HC[Nva]-NH2
modifications: linker 2-10 via pXylyl
B3: R3131 (peptide)
peptide: Ac-[Nva]C[Phg]TW[Ala(1H-tetrazol-5-yl)]Y[NMeS]HC[Nva]-NH2
modifications: linker 2-10 via mXylyl(3)
B4: R3140 (peptide)
peptide: Ac-CVERFCDVYWEYP-NH2
modifications: linker 1-6 via mXylyl″
B5: R3108 (peptide)
peptide: Ac-[Nva][hCys][Phg]T[Trp(7-aza)]EY[NMeS]H[hCys][Nva]-NH2
modifications: linker 2-10 via pXylyl
B6: R3012 (peptide)
peptide: Ac-[Nva]C[Phg]T[Trp(7-aza)]EY[NMeS]HC[Nva]-NH2
modifications: linker 2-10 via mXylyl
B7: R3137 (peptide)
peptide: Heptanoyl-C[dPhg]T[Trp(7-aza)]EY[NMeS]AC[Nva]-NH2
modifications: linker 1-9 via mXylyl″; not fully specified; printed as [mXylyl(1,9)]heptanoyl-C-(D-Phg)-T-azaTrp-E-Y-(N-Me)S-A-C-Nvl-NH2
B8: R3134 (peptide)
peptide: Ac-[Nva]C[Phg]T[Trp(7-aza)]E[Phe(3-Cl)][NMeS]AC[Nva]-NH2
modifications: linker 2-10 via mXylyl″
B9: R3128 (peptide)
peptide: Ac-[Nva]CYNN[Tle]ECEYP[Phg][Tle]-NH2
modifications: cysteine pairing not given here
B10: R3000 (peptide)
peptide: Ac-[Nva]CYKNYH[Trp(7-aza)]EYP[Tle]Y-NH2
SMILES: CCC[C@H](NC(C)=O)C(=O)N[C@@H](CS)C(=O)N[C@@H](Cc1ccc(O)cc1)C(=O)N[C@@H](CCCCN)C(=O)N[C@@H](CC(N)=O)C(=O)N[C@@H](Cc1ccc(O)cc1)C(=O)N[C@@H](Cc1c[nH]cn1)C(=O)N[C@@H](Cc1c[nH]c2ncccc12)C(=O)N[C@@H](CCC(=O)O)C(=O)N[C@@H](Cc1ccc(O)cc1)C(=O)N1CCC[C@H]1C(=O)N[C@H](C(=O)N[C@@H](Cc1ccc(O)cc1)C(N)=O)C(C)(C)C
B11: R3119 (peptide)
peptide: Ac-YENY[dW]EYP[Phg][Nva]-NH2
SMILES: CCC[C@H](NC(=O)[C@@H](NC(=O)[C@@H]1CCCN1C(=O)[C@H](Cc1ccc(O)cc1)NC(=O)[C@H](CCC(=O)O)NC(=O)[C@@H](Cc1c[nH]c2ccccc12)NC(=O)[C@H](Cc1ccc(O)cc1)NC(=O)[C@H](CC(N)=O)NC(=O)[C@H](CCC(=O)O)NC(=O)[C@H](Cc1ccc(O)cc1)NC(C)=O)c1ccccc1)C(N)=O
B12: R3110 (peptide)
peptide: Ac-YEN[Tle]Y[Trp(1-Me)]EYP[Phg][Nva]-NH2
SMILES: CCC[C@H](NC(=O)[C@@H](NC(=O)[C@@H]1CCCN1C(=O)[C@H](Cc1ccc(O)cc1)NC(=O)[C@H](CCC(=O)O)NC(=O)[C@H](Cc1cn(C)c2ccccc12)NC(=O)[C@H](Cc1ccc(O)cc1)NC(=O)[C@@H](NC(=O)[C@H](CC(N)=O)NC(=O)[C@H](CCC(=O)O)NC(=O)[C@H](Cc1ccc(O)cc1)NC(C)=O)C(C)(C)C)c1ccccc1)C(N)=O
B13: R3105 (peptide)
peptide: Ac-[Nva]C[Phg]T[Trp(7-aza)]EY[NMeS]H[hCys][Nva]-NH2
modifications: linker 2-10 via mXylyl(4)
B14: R3102 (peptide)
peptide: Ac-[Nva]C[Phg]T[Trp(7-aza)]EYPHC[Nva]-NH2
modifications: linker 2-10 via mXylyl(4)
B15: R3124 (peptide)
peptide: Ac-CVERFCVYWEF-NH2
modifications: linker 1-6 via mXylyl(4)
B16: R3133 (peptide)
peptide: Ac-[Nva]C[Phg][dA][Trp(7-aza)]EY[NMeS]HC[Nva]-NH2
modifications: linker 2-10 via mXylyl″
B17: R3127 (peptide)
peptide: Ac-[Nva]CYNN[Tle]E[Trp(7-aza)]ECP[Phg][Tle]-NH2
modifications: linker 2-10 via mXylyl(4)
B18: R3106 (peptide)
peptide: Ac-[Nva]C[Phg]T[Trp(7-aza)]EY[NMeS]H[hCys][Nva]-NH2
modifications: linker 2-10 via pXylyl
B19: R3136 (peptide)
peptide: Heptanoyl-[Nva]C[dPhg]T[Trp(7-aza)]EY[NMeS]AC[Nva]-NH2
modifications: linker 2-10 via mXylyl″; not fully specified; printed as [mXylyl(2,10)]heptanoyl-Nvl-C-(D-Phg)-T-azaTrp-E-Y-(N-Me)S-A-C-Nvl-NH2
B20: R3132 (peptide)
peptide: Ac-[Nva]C[Phg]T[dW]EY[NMeS]HC[Nva]-NH2
modifications: linker 2-10 via mXylyl″
B21: R3139 (peptide)
peptide: Ac-C[Tle]ERFCD[Tle]YWEF-NH2
modifications: linker 1-6 via mXylyl″
B22: R3009 (peptide)
peptide: Ac-[Nva]CYE[Sar][Tle]Y[Trp(7-aza)]EC[Nva]P[Nva]-NH2
modifications: linker 2-10 via mXylyl
B23: R3125 (peptide)
peptide: Ac-CVERFCWEF-NH2
modifications: linker 1-6 via mXylyl(4)
B24: R3112 (peptide)
peptide: Ac-[Nle]C[Phg]T[Trp(7-aza)]EY[NMeS]HC[Nva]-NH2
modifications: linker 2-10 via mXylyl(4)
B25: R3126 (peptide)
peptide: Ac-[Nva]CYNN[Tle]E[Trp(7-aza)]ECP[Phg][Tle]-NH2
modifications: cysteine pairing not given here
B26: R3138 (peptide)
peptide: Ac-CVERFCD[Tle]YWEF-NH2
modifications: linker 1-6 via mXylyl″
B27: R3135 (peptide)
peptide: Ac-[Nva]C[Phg]T[Trp(7-aza)]EY[NMeS][dA]C[Nva]-NH2
modifications: linker 2-10 via mXylyl″
B28: R3113 (peptide)
peptide: Ac-Y[Nva]C[Phg]T[Trp(7-aza)]EY[NMeS]HC[Nva]-NH2
modifications: linker 3-11 via mXylyl(4)
B29: R3107 (peptide)
peptide: Ac-[Nva][hCys][Phg]T[Trp(7-aza)]EY[NMeS]H[hCys][Nva]-NH2
modifications: linker 2-10 via mXylyl(4)
B30: R3103 (peptide)
peptide: Ac-[Nva][hCys][Phg]T[Trp(7-aza)]EY[NMeS]HC[Nva]-NH2
modifications: linker 2-10 via mXylyl(4)
B31: R3111 (peptide)
peptide: Ac-[Nva]T[Phg]C[Trp(7-aza)]EY[NMeS]AC[Nva]-NH2
modifications: linker 4-10 via mXylyl(4)
B32: R3101 (peptide)
peptide: Ac-[Nva]C[Phg]T[Trp(7-aza)]EY[NMeS]HGC[Nva]-NH2
modifications: linker 2-11 via mXylyl(4) (inferred)
B33: R3122 (peptide)
peptide: Ac-[Nva]C[Tiq1c(1S)]T[Trp(7-aza)]EY[NMeS]HC[Nva]-NH2
modifications: linker 2-10 via mXylyl(3)
B34: R3129 (peptide)
peptide: Ac-[Nva]CYNN[Tle]ECEYP[Phg][Tle]-NH2
modifications: linker 2-8 via mXylyl(4)
B35: R3109 (peptide)
peptide: Ac-[Nva]C[Phg]T[Trp(1-Me)]EY[NMeS]AC[Nva]-NH2
modifications: linker 2-10 via mXylyl(4)

The binders below were run against human C5 protein (human, UniProt P01031 19-673; P01031 678-1676) (assay: cell-based or functional assay).
In the case of B1, the “Avg. IC50, human hemolysis assay (complete human sera)” value (“Avg. IC50, human hemolysis assay” for short) is reported as over 100 µM.
In the case of B2, the “Avg. IC50, human hemolysis assay” value is reported as over 2 µM.
With B3 the “Avg. IC50, human hemolysis assay” value was over 100 µM.
B4 was tested, and the “Avg. IC50, human hemolysis assay” value was 0.0179 µM.
For B5, the “Avg. IC50, human hemolysis assay” value was over 75 µM.
B6 was tested, and the “Avg. IC50, human hemolysis assay” value was 0.148 µM.
In the case of B7, the “Avg. IC50, human hemolysis assay” value is reported as over 100 µM.
B8 was tested, and the “Avg. IC50, human hemolysis assay” value was over 5 µM.
For B9, the “Avg. IC50, human hemolysis assay” value was over 100 µM.
With B10 the “Avg. IC50, human hemolysis assay” value was over 10 µM.
In the case of B11, the “Avg. IC50, human hemolysis assay” value is reported as over 100 µM.
With B12 the “Avg. IC50, human hemolysis assay” value was 2.94 µM.
B13 was tested, and the “Avg. IC50, human hemolysis assay” value was over 5 µM.
In the case of B14, the “Avg. IC50, human hemolysis assay” value is reported as 0.978 µM.
B15 was tested, and the “Avg. IC50, human hemolysis assay” value was over 100 µM.
For B16, the “Avg. IC50, human hemolysis assay” value was over 75 µM.
For B17, the “Avg. IC50, human hemolysis assay” value was over 75 µM.
For B18, the “Avg. IC50, human hemolysis assay” value was over 5 µM.
With B19 the “Avg. IC50, human hemolysis assay” value was over 50 µM.
B20 was tested, and the “Avg. IC50, human hemolysis assay” value was over 100 µM.
B21 was tested, and the “Avg. IC50, human hemolysis assay” value was 0.0972 µM.
B22 was tested, and the “Avg. IC50, human hemolysis assay” value was over 100 µM.
B23 was tested, and the “Avg. IC50, human hemolysis assay” value was over 100 µM.
For B24, the “Avg. IC50, human hemolysis assay” value was over 5 µM.
B25 was tested, and the “Avg. IC50, human hemolysis assay” value was over 3 µM.
With B26 the “Avg. IC50, human hemolysis assay” value was 0.0872 µM.
B27 was tested, and the “Avg. IC50, human hemolysis assay” value was over 25 µM.
With B28 the “Avg. IC50, human hemolysis assay” value was over 5 µM.
For B29, the “Avg. IC50, human hemolysis assay” value was over 75 µM.
In the case of B30, the “Avg. IC50, human hemolysis assay” value is reported as over 25 µM.
B31 was tested, and the “Avg. IC50, human hemolysis assay” value was over 5 µM.
For B32, the “Avg. IC50, human hemolysis assay” value was over 100 µM.
For B33, the “Avg. IC50, human hemolysis assay” value was over 50 µM.
B34 was tested, and the “Avg. IC50, human hemolysis assay” value was over 100 µM.
In the case of B35, the “Avg. IC50, human hemolysis assay” value is reported as over 100 µM.

From patent US11535650 (RA PHARMACEUTICALS, dated 2022)
